Data: patent US20150203577A1 (Chugai, published 2015)

T1: mouse FcγRII (mouse, UniProt P08101 30-210)
T1 construct: also called mFcγRII; mFcgRII
T1 sequence: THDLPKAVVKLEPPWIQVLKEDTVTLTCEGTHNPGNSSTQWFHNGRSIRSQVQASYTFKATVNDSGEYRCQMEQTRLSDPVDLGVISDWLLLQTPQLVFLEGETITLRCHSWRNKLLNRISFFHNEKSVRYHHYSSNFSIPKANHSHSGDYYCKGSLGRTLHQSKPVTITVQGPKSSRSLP

T2: mouse FcγRII extracellular domain, C-terminally His-tagged (mouse, UniProt P08101 30-210)
T2 construct: the whole entry is named; also called mFcγRII; mFcgRII
T2 sequence: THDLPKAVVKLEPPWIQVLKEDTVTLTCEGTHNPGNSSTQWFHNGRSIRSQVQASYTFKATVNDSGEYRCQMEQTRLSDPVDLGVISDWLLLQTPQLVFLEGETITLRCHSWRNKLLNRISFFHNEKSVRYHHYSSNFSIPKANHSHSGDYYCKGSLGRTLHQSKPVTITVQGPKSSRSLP

T3: mouse FcγRIII extracellular domain, C-terminally His-tagged (mouse, UniProt P08508 31-215)
T3 construct: the whole entry is named; also called mFcγRIII; mFcgRIII
T3 chain: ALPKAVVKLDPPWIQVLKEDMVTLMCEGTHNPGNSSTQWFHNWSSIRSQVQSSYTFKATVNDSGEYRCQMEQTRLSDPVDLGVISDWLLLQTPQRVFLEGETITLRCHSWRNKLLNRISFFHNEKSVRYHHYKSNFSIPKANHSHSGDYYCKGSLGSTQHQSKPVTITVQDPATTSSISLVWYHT


Legend:
mouse FcγRII [1] = biological target: T1, mouse FcγRII; experiment: SPR Biacore T200, KD ratio
mouse FcγRII [2] = biological target: T1, mouse FcγRII; experiment: SPR Biacore T200, KD ratio; upper end tied to MB397 by Table 8
[3] = biological target: T2, mouse FcγRII extracellular domain, …; experiment: SPR Biacore T200
[4] = biological target: T3, mouse FcγRIII extracellular domain, …; experiment: SPR Biacore T200, KD ratio

Binder	relative mFcγRII-binding activity (H237-mIgG1/MRAL-k0 = 1) (mouse FcγRII [1]) [fold]	relative mFcγRII-binding activity (H237-mIgG1/MRAL-k0 = 1) (mouse FcγRII [2]) [fold]	binding result [3]	relative mFcγRIII-binding activity (mIgG1 = 1) [4] [fold]
H237-MB397/MRAL-k0 (antibody, mouse IgG1, kappa, mIgG1 with T230E/V231T/P232Y/S238E/S239D; also called template T4; copies: 2 + 2) heavy: QVQLQESGPGLVKPSETLSLTCAVSGHSISHDHAWSWVRQPPGEGLEWIGFISYSGITNYNPSLQGRVTISRDNSKNTLYLQMNSLRAEDTAVYYCARSLARTTAMDYWGEGTLVTVSSAKTTPPSVYPLAPGSAAQTNSMVTLGCLVKGYFPEPVTVTWNSGSLSSGVHTFPAVLQSDLYTLSSSVTVPSSTWPSETVTCNVAHPASSTKVDKKIVPRDCGCKPCICETYEVEDVFIFPPKPKDVLTITLTPKVTCVVVDISKDDPEVQFSWFVDDVEVHTAQTQPREEQFNSTFRSVSELPIMHQDWLNGKEFKCRVNSAAFPAPIEKTISKTKGRPKAPQVYTIPPPKEQMAKDKVSLTCMITDFFPEDITVEWQWNGQPAENYKNTQPIMDTDGSYFVYSKLNVQKSNWEAGNTFTCSVLHEGLHNHHTEKSLSHSPGK light: not shown	> 500	600	–	–
H237-MB656/MRAL-k0 (antibody, mouse IgG1, kappa, copies: 2 + 2) heavy: QVQLQESGPGLVKPSETLSLTCAVSGHSISHDHAWSWVRQPPGEGLEWIGFISYSGITNYNPSLQGRVTISRDNSKNTLYLQMNSLRAEDTAVYYCARSLARTTAMDYWGEGTLVTVSSAKTTPPSVYPLAPGSAAQTNSMVTLGCLVKGYFPEPVTVTWNSGSLSSGVHTFPAVLQSDLYTLSSSVTVPSSTWPSETVTCNVAHPASSTKVDKKIVPRDCGCKPCICIPAEVEFVFIFPPKPKDVLTITLTPKVTCVVVDISKDDPEVQFSWFVDDVEVHTAQTQPREEQFNSTFRSVSELPIMHQDWLNGKEFKCRVNSAAFPAPIEKTISKTKGRPKAPQVYTIPPPKEQMAKDKVSLTCMITDFFPEDITVEWQWNGQPAENYKNTQPIMDTDGSYFVYSKLNVQKSNWEAGNTFTCSVLHEGLHNHHTEKSLSHSPGK light: not shown	–	–	no binding	0.02
